Experimental data from paper PMC10504179.

B1: single nicked 40 nt dsDNA (Template T + N1 + N2) (dsDNA)
DNA 1: ATTGAGTGGACAAAGTATCGTAGGGTAGTATTGGTGGATA
DNA 2: TATCCACCAATACTACCCTA
DNA 3: CGATACTTTGTCCACTCAAT
modifications: none; 5' end at nick not phosphorylated
B2: single nick with 10 nt 5'-flap 40 nt dsDNA (Template T + F1 + N2) (dsDNA)
DNA 1: B1 DNA 1
DNA 2: TATCCACCAATACTACCCTA
DNA 3: TAACGCTGGGCGATACTTTGTCCACTCAAT
modifications: none; 5' end of flap not phosphorylated
B3: 1 nt gapped 40 nt dsDNA (Template T + G1 + G2) (dsDNA)
DNA 1: B1 DNA 1
DNA 2: TATCCACCAATACTACCCTAC
DNA 3: ATACTTTGTCCACT
modifications: none; 5' end at gap not phosphorylated

Experiments:
[1] = biological target: DrLigAΔBRCT (Deinococcus radiodurans, UniProt Q9RSQ5 1-600); test: EMSA; 5 mM MgSO4, 5 mM MnSO4, 300 µM NAD+; no complex up to 1:10 DNA:protein (100 nM DNA); 20 mM Bis-Tris pH 6.0, 5 mM MgSO4, 5 mM MnSO4, 300 µM NAD+, 25% glycerol; 100 nM DNA; 15 min at room temperature; 6% PAGE, 1x TBE, 4 °C
[2] = biological target: DrLigA (Deinococcus radiodurans, UniProt Q9RSQ5 1-700); test: EMSA; 5 mM MgSO4, 5 mM MnSO4, 300 µM NAD+; 100 nM DNA, tight at 10-fold protein; 20 mM Bis-Tris pH 6.0, 5 mM MgSO4, 5 mM MnSO4, 300 µM NAD+, 25% glycerol; 100 nM DNA; 15 min at room temperature; 6% PAGE, 1x TBE, 4 °C

Binder | binding result [1] | binding result [2]
B1 | no binding | binds
B2 | no binding | –
B3 | no binding | binds
